Test results taken from paper PMC2577326.

Molecular target: PspGI-D138A selenomethionine variant (Pyrococcus GI-H)
Experiment: crystal structure

- stoichiometry N: 2
Substance: PspGI-D138A selenomethionine variant (enzyme)
